# From article PMC8199036, “Improved Tumor-Targeting with Peptidomimetic Analogs of Minigastrin ^177Lu-PP-F11N” (Cancers, 2021)
# Where two headings read alike, the source gives them in different places. Residues, ends and D or L forms follow the SMILES beside them.
# Columns and labels:
# [1] = biodistribution in mice with CCK2R-positive xenografts; type: in vivo, female CD1-nu mice; conditions: female, CD1-nu, mouse, total radioactivity; for tissue uptake at 4 h / tissue uptake at 24 h / tissue uptake at 1 h: in vivo
# Protocol: (§1) Procedures for biodistribution studies with ^177Lu-labeled conjugates (10 pmol, 100 µL, 0.1 µM in PBS, 0.5 MBq, 1 µg/kg) in female CD1-nu mice with xenografts of A431-CCK2R cells at 1, 4, and 24 h p.i., as well as blocking experiments at 4 h p.i. with a 6000-fold excess of minigastrin have been reported previously and were followed without modifications. Statistical analysis was performed via GraphPad Prism using two-sided analysis of variance. n = 4 animals per group.
# [2] = test system: xenografts of A431-CCK2R cells; test: as above; type: in vivo, female CD1-nu mice
# Protocol: as §1
# [3] = 10 pmol, Stomach (CCK2R-positive) uptake
# [4] = 10 pmol, Tumor (CCK2R-positive) uptake
# [5] = tumor / blood, 10 pmol, read-out: Tumor-to-Blood ratio
# [6] = tumor / kidneys, 10 pmol, read-out: Tumor-to-Kidneys ratio
# [7] = tumor / muscle, 10 pmol, read-out: Tumor-to-Muscle ratio
# [8] = tumor / stomach, 10 pmol, read-out: Tumor-to-Stomach ratio
# [9] = female, CD1-nu, mouse, in vivo, 10 pmol, 4 h
smiles,measurement,setting,value
"CCCC[C@H](NC(=O)[C@H](Cc1c[nH]c2ccccc12)NC(=O)Cn1cc([C@H](Cc2ccc(O)cc2)NC(=O)[C@H](C)NC(=O)[C@@H](CCC(=O)O)NC(=O)[C@@H](CCC(=O)O)NC(=O)[C@@H](CCC(=O)O)NC(=O)[C@@H](CCC(=O)O)NC(=O)[C@@H](CCC(=O)O)NC(=O)[C@@H](CCC(=O)O)NC(=O)CN2CCN(CC(=O)O)CCN(CC(=O)O)CCN(CC(=O)O)CC2)nn1)C(=O)N[C@@H](CC(=O)O)C(=O)N[C@@H](Cc1ccccc1)C(N)=O [NMG 2, DOTA-(DGlu)6-Ala-Tyr-Ψ[Tz]-Gly-Trp-Nle-Asp-Phe-NH2] (HELM PEPTIDE1{[O=C(O)CN1CCN(CC(=O)O)CCN(CC(=O)[*:2])CCN(CC(=O)O)CC1].[dE].[dE].[dE].[dE].[dE].[dE].A.[O=C(Cn1cc([C@H](Cc2ccc(O)cc2)N[*:1])nn1)[*:2]].W.[Nle].D.F.[am]}$$$$V2.0)",tissue uptake at 4 h,"[1]; 10 pmol, Blood uptake",0.01 %ID/g
same,tissue uptake at 24 h,"[1]; 10 pmol, Blood uptake",< 0.01 %ID/g
same,tissue uptake at 1 h,"[1]; 10 pmol, Bone uptake",0.29 %ID/g
same,tissue uptake at 4 h,"[1]; 10 pmol, Bone uptake",0.1 %ID/g
same,tissue uptake at 24 h,"[1]; 10 pmol, Bone uptake",0.07 %ID/g
same,tissue uptake at 1 h,"[1]; 10 pmol, Heart uptake",0.07 %ID/g
same,tissue uptake at 4 h,"[1]; 10 pmol, Heart uptake",0.02 %ID/g
same,tissue uptake at 24 h,"[1]; 10 pmol, Heart uptake",0.01 %ID/g
same,tissue uptake at 1 h,"[1]; 10 pmol, Intestines uptake",0.15 %ID/g
same,tissue uptake at 4 h,"[1]; 10 pmol, Intestines uptake",0.07 %ID/g
same,tissue uptake at 24 h,"[1]; 10 pmol, Intestines uptake",0.06 %ID/g
same,tissue uptake at 1 h,"[1]; 10 pmol, Kidneys uptake",2.19 %ID/g
same,tissue uptake at 4 h,"[1]; 10 pmol, Kidneys uptake",2.07 %ID/g
same,tissue uptake at 24 h,"[1]; 10 pmol, Kidneys uptake",1.33 %ID/g
same,tissue uptake at 1 h,"[1]; 10 pmol, Liver uptake",0.11 %ID/g
same,tissue uptake at 4 h,"[1]; 10 pmol, Liver uptake",0.05 %ID/g
same,tissue uptake at 24 h,"[1]; 10 pmol, Liver uptake",0.03 %ID/g
same,tissue uptake at 1 h,"[1]; 10 pmol, Lung uptake",0.18 %ID/g
same,tissue uptake at 4 h,"[1]; 10 pmol, Lung uptake",0.04 %ID/g
same,tissue uptake at 24 h,"[1]; 10 pmol, Lung uptake",0.02 %ID/g
same,tissue uptake at 1 h,"[1]; 10 pmol, Muscle uptake",0.05 %ID/g
same,tissue uptake at 4 h,"[1]; 10 pmol, Muscle uptake",0.01 %ID/g
same,tissue uptake at 24 h,"[1]; 10 pmol, Muscle uptake",0.01 %ID/g
same,tissue uptake at 1 h,"[1]; 10 pmol, Pancreas uptake",0.33 %ID/g
same,tissue uptake at 4 h,"[1]; 10 pmol, Pancreas uptake",0.28 %ID/g
same,tissue uptake at 24 h,"[1]; 10 pmol, Pancreas uptake",0.17 %ID/g
same,tissue uptake at 1 h,"[1]; 10 pmol, Spleen uptake",0.06 %ID/g
same,tissue uptake at 4 h,"[1]; 10 pmol, Spleen uptake",0.03 %ID/g
same,tissue uptake at 24 h,"[1]; 10 pmol, Spleen uptake",0.02 %ID/g
same,tissue uptake at 1 h,[1]; [3],2.85 %ID/g
same,tissue uptake at 4 h,[1]; [3],2.66 %ID/g
same,tissue uptake at 24 h,[1]; [3],1.63 %ID/g
same,tissue uptake at 1 h,[1]; [4],5.94 %ID/g
same,tissue uptake at 4 h,[1]; [4],7.15 %ID/g
same,tissue uptake at 24 h,[1]; [4],4.73 %ID/g
same,tissue uptake at 4 h,[1]; Blood uptake,0.01 %ID/g
same,tissue uptake at 4 h,[1]; Heart uptake,0.02 %ID/g
same,tissue uptake at 4 h,[1]; Intestines uptake,0.1 %ID/g
same,tissue uptake at 4 h,[1]; Kidneys uptake,2.24 %ID/g
same,tissue uptake at 4 h,[1]; Liver uptake,0.06 %ID/g
same,tissue uptake at 4 h,[1]; Lung uptake,0.04 %ID/g
same,tissue uptake at 4 h,[1]; Pancreas uptake,0.06 %ID/g
same,tissue uptake at 4 h,[1]; Spleen uptake,0.03 %ID/g
same,tissue uptake at 4 h,[1]; Stomach (CCK2R-positive) uptake,0.46 %ID/g
same,tissue uptake at 4 h,[1]; Tumor (CCK2R-positive) uptake,2.54 %ID/g
same,tissue to tissue ratio at 1 h,[1]; [5],31.1 ± 10.3
same,tissue to tissue ratio at 4 h,[1]; [5],715 ± 133
same,tissue to tissue ratio at 24 h,[1]; [5],4260 ± 1690
same,tissue to tissue ratio at 1 h,[1]; [6],2.76 ± 0.79
same,tissue to tissue ratio at 4 h,[1]; [6],3.5 ± 0.54
same,tissue to tissue ratio at 24 h,[1]; [6],3.78 ± 1.48
same,tissue to tissue ratio at 1 h,[1]; [7],124 ± 42.1
same,tissue to tissue ratio at 4 h,[1]; [7],715 ± 133
same,tissue to tissue ratio at 24 h,[1]; [7],441 ± 73.7
same,tissue to tissue ratio at 1 h,[1]; [8],2.68 ± 1.57
same,tissue to tissue ratio at 4 h,[1]; [8],3.08 ± 1.1
same,tissue to tissue ratio at 24 h,[1]; [8],3.13 ± 1.28
same,Tumor washout: tumor uptake relative to 1h,[2]; 4 h,120%
same,Tumor washout: tumor uptake relative to 1h,[2]; 24 h,80%
same,Bone uptake,[2]; [9],0.09 % i.A./g
same,Muscle uptake,[2]; [9],0.02 % i.A./g
